Laboratory results as given in US9132174 (ANCHORED RSK3 INHIBITORS, dated 2015).

T1: His-tagged mAKAP 1286-1833 (bacterially expressed) (UniProt Q9WVC7 1286-1833)
T1 chain: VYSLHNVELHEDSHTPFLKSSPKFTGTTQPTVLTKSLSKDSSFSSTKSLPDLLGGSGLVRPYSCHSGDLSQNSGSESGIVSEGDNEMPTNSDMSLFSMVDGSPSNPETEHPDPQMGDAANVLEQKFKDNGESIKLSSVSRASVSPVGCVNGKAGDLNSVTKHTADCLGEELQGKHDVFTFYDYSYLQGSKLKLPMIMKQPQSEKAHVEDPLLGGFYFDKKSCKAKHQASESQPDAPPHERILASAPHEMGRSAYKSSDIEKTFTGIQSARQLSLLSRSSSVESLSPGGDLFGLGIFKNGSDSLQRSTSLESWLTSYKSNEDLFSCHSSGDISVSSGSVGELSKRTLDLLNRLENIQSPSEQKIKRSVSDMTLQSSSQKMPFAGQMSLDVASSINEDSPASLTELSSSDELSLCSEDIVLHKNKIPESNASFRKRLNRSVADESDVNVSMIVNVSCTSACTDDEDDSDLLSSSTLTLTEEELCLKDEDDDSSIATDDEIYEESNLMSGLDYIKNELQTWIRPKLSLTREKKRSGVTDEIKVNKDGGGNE

T2: His-tagged mAKAP 1286-1833 (bacterially expressed) (UniProt Q9WVC7 1286-1833)
T2 construct: Covalently immobilised by amine coupling on a CM5 chip, 200 resonance units; not shown: His tag (pET30 parent vector)
T2 sequence (looked up): T1 chain

B1: His-tagged full-length RSK3, unphosphorylated (bacterially expressed) (enzyme)
chain: MDLSMKKFAVRRFFSVYLRRKSRSKSSSLSRLEEEGVVKEIDISHHVKEGFEKADPSQFELLKVLGQGSYGKVFLVRKVKGSDAGQLYAMKVLKKATLKVRDRVRSKMERDILAEVNHPFIVKLHYAFQTEGKLYLILDFLRGGDLFTRLSKEVMFTEEDVKFYLAELALALDHLHSLGIIYRDLKPENILLDEEGHIKITDFGLSKEAIDHDKRAYSFCGTIEYMAPEVVNRRGHTQSADWWSFGVLMFEMLTGSLPFQGKDRKETMALILKAKLGMPQFLSGEAQSLLRALFKRNPCNRLGAGIDGVEEIKRHPFFVTIDWNTLYRKEIKPPFKPAVGRPEDTFHFDPEFTARTPTDSPGVPPSANAHHLFRGFSFVASSLIQEPSQQDLHKVPVHPIVQQLHGNNIHFTDGYEIKEDIGVGSYSVCKRCVHKATDTEYAVKIIDKSKRDPSEEIEILLRYGQHPNIITLKDVYDDGKFVYLVMELMRGGELLDRILRQRYFSEREASDVLCTITKTMDYLHSQGVVHRDLKPSNILYRDESGSPESIRVCDFGFAKQLRAGNGLLMTPCYTANFVAPEVLKRQGYDAACDIWSLGILLYTMLAGFTPFANGPDDTPEEILARIGSGKYALSGGNWDSISDAAKDVVSKMLHVDPHQRLTAMQVLKHPWVVNREYLSPNQLSRQDVHLVKGAMAATYFALNRTPQAPRLEPVLSSNLAQRRGMKRLTSTRL
B2: ERK-phosphorylated His-RSK3 (enzyme)
chain: B1 chain
modifications: phosphorylated in vitro with ERK2; sites of this preparation not given
notes: also called Phospho-His-RSK3 (ERK2); not shown: His tag
B3: ERK and PDK1-phosphorylated His-RSK3 (enzyme)
chain: B1 chain
modifications: phosphorylated in vitro with ERK2 and PDK1; sites of this preparation not given
notes: also called Phospho-His-RSK3 (ERK2 and PDK1); not shown: His tag

Experiments:
[1] = target: T1, His-tagged mAKAP 1286-1833 (bacterially …); assay: SPR; unphosphorylated RSK3
[2] = target: T2, His-tagged mAKAP 1286-1833 (bacterially …); assay: SPR (BIAcore T100), His-mAKAP 1286-1833 immobilised, phospho-His-RSK3 as analyte
Text: Figure 7: FIG. 7. The p90 ribosomal S6 kinase type 3 (RSK3) binding site within muscle A-kinase anchoring protein (mAKAP). A, mAKAP domain structure. […] All fragments are numbered per mAKAPα. The grey bar indicates the RSK3 binding site. B-F, Specific tag antibodies were used to immunoprecipitate myc-tagged mAKAPβ and HA-tagged p90 ribosomal S6 kinase (RSK) proteins (see FIG. 4A) co-expressed in either HEK293 (B) or COS-7 (C-F) cells (n=3) for all panels. G, Surface plasmon resonance using purified bacterially expressed proteins. […] Each curve was repeated 3 times using different protein preparations.
Surface Plasmon Resonance: SPR analysis was performed using a BIAcore T100. […] (Biacore amine coupling kit) to the surface of a sensor chip (BIAcore type CM5). His-RSK3 analytes (6.25-200 nmol/L) in HBS buffer (10 mmol/L Hepes, pH 7.4, 150 mmol/L NaCl, and 0.005% Surfactant P20) were injected at a flow rate of 30 μL/min for 5 minutes, followed by buffer alone for another 5 minutes. Sensorgrams were processed by BIAcore T100 evaluation software.

[3] = target: T1, His-tagged mAKAP 1286-1833 (bacterially …); assay: SPR; ERK-phosphorylated RSK3
[4] = target: T1, His-tagged mAKAP 1286-1833 (bacterially …); assay: SPR; ERK- and PDK1-phosphorylated RSK3

Binder	Kd [1] [nM]	fold decrease in binding affinity against unphosphorylated RSK3 [2] [fold]	Kd [3] [nM]	Kd [4] [nM]
B1	1.6			
B2		5	7.3	
B3		8		12.7
